Measurements from patent US9402900B2, “Methods of modulating adrenomedullin by administering an anti-adrenomedullin (ADM) antibody” (ADRENOMED AG, priority 2011, dated 2016).

Tests used:
[1] = molecular target: T1, Human ADM 1-52 bioactivity at human recombinant adrenomedullin receptor (CRLR+RAMP3) in CHO-K1 cells (Homo sapiens, UniProt P35318); assay: Human recombinant Adrenomedullin receptor cAMP functional assay (Adrenomedullin Bioassay), human ADM as agonist; format: cell-based; conditions: in the presence of 5.63 nM Human ADM 1-52; antibody up to 100 μg/ml
T1 construct: comprises the amino acids 95 to 146 of pre-proADM; FAST-027C (receptor cell line); host or cells: CHO-K1 cells transfected with human CRLR+RAMP3
T1 sequence (P35318 95-146): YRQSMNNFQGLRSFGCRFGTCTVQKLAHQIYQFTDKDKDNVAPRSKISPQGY
Experimental: The effect of selected ADM-antibodies on ADM-bioactivity was tested in an human recombinant Adrenomedullin receptor cAMP functional assay (Adrenomedullin Bioassay).
Testing of Antibodies Targeting Human or Mouse Adrenomedullin in Human Recombinant Adrenomedullin Receptor cAMP Functional Assay (Adrenomedullin Bioassay)
Receptor: Adrenomedullin (CRLR+RAMP3)
Receptor Accession Number Cell line: CRLR: U17473; RAMP3: AJ001016
Dose response curves were performed in parallel with the reference agonists (hADM or mADM).
For antagonist testing, 6 μl of the reference agonist (human (5.63 nM) or mouse (0.67 nM) adrenomedullin) was mixed with 6 μl of the test samples at different antagonist dilutions; or with 6 μl buffer. After incubation for 60 min at room temperature, 12 μl of cells (2,500 cells/well) were added. The plates were incubated for 30 min at room temperature.
The anti-h-ADM antibodies (NT-H, MR-H, CT-H) were tested for antagonist activity in human recombinant adrenomedullin receptor (FAST-027C) cAMP functional assay in the presence of 5.63 nM Human ADM 1-52, at the following final antibody concentrations: 100 μg/ml, 20 μg/ml, 4 μg/ml, 0.8 μg/ml, 0.16 μg/ml.

hADM = molecular target: T2, hADM (Homo sapiens, UniProt P35318); assay: hADM sandwich luminescence immunoassay, dose/signal curve in presence of antibody; conditions: 100 μg/mL antibody
T2 construct: comprises the amino acids 95 to 146 of pre-proADM; purchased BACHEM AG, Switzerland
T2 sequence (P35318 95-146): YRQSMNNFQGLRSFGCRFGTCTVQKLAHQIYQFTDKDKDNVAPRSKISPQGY
Experimental: The assay was calibrated, using dilutions of hADM
Unbound tracer was removed by washing 5 times (each 1 ml) with washing solution (20 mM PBS, pH 7.4, 0.1% Triton X-100).
Tube-Bound Chemiluminescence was Measured by Using the LB 953

B1: NT-H: mouse monoclonal antibody raised against human ADM region 1-21 (SEQ ID: 15) (antibody, V domains shown)
VH: QVQLQQSGAELMKPGASVKISCKATGYTFSRYWIEWVKQRPGHGLEWIGEILPGSGSTNYNEKFKGKATITADTSSNTAYMQLSSLTSEDSAVYYCTEGYEYDGFDYWGQGTTLTVSS
VL: DVLLSQTPLSLPVSLGDQATISCRSSQSIVYSNGNTYLEWYLQKPGQSPKLLIYRVSNRFSGVPDRFSGSGSGTDFTLKISRVEAEDLGVYYCFQGSHIPYTFGGGTKLEIK
Maximal inhibition of ADM bioactivity (ADM-Bioassay) (%) [1]: 38% | Effect on the hADM immunoassay (dose/signal curve) (hADM): did not affect
